Positions count from the first letter of the chain named.
B1: TCR 56 (TCR, V domains shown)
Valpha: GQNIDQPTEMTATEGAIVQINCTYQTSGFNGLFWYQQHAGEAPTFLSYNVLDGLEEKGRFSSFLSRSKGYSYLLLKELQMKDSASYLCAVRDWGYGGATNKLIFGTGTLLAVQP
Vbeta: NAGVMQNPRHLVRRRGQEARLRCSPMKGHSHVYWYRQLPEEGLKFMVYLQKENIIDESGMPKERFSAEFPKEGPSILRIQQVVRGDSAAYFCASSPDESRDSNQPQHFGDGTRLSIL
B2: TCR 64 (TCR, V domains shown)
Valpha: AQKVTQAQTEISVVEKEDVTLDCVYETRDTTYYLFWYKQPPSGELVFLIRRNSFDEQNEISGRYSWNFQKSTSSFNFTITASQVVDSAVYFCALSGVDNYGQNFVFGPGTRLSVLP
Vbeta: DTAVSQTPKYLVTQMGNDKSIKCEQNLGHDTMYWYKQDSKKFLKIMFSYNNKELIINETVPNRFSPKSPDKAHLNLHINSLELGDSAVYFCASSQGEAGANVLTFGAGSRLTVL
B3: TCR 63 (TCR, V domains shown)
Valpha: SQELEQSPQSLIVQEGKNLTINCTSSKTLYGLYWYKQKYGEGLIFLMMLQKGGEEKSHEKITAKLDEKKQQSSLHITASQPSHAGIYLCGADIDDYKLSFGAGTTVTVRA
Vbeta: GAGVSQSPRYKVAKRGQDVALRCDPISGHVSLFWYQQALGQGPEFLTYFQNEAQLDKSGLPSDRFFAERPEGSVSTLKIQRTQQEDSAVYLCASRPRQGYNDNEQFFGPGTRLTVL
B4: TCR 56 (mouse constant regions) (TCR, V domains shown)
V domain 1: B1 Valpha
V domain 2: NAGVMQNPRHLVRRRGQEARLRCSPMKGHSHVYWYRQLPEEGLKFMVYLQKENIIDESGMPKERFSAEFPKEGPSILRIQQVVRGDSAAYFCASSPDESRDSNQPQHFGDGTRLSILE
notes: Human variable regions on mouse constant regions with added cysteines (Calpha Thr48Cys, Cbeta Ser57Cys); Entries are the full chains without signal peptide
B5: TCR 65 (mouse constant regions) (TCR, V domains shown)
V domain 1: EDQVTQSPEALRLQEGESSSLNCSYTVSGLRGLFWYRQDPGKGPEFLFTLYSAGEEKEKERLKATLTKKESFLHITAPKPEDSATYLCAVQAERGSTLGRLYFGRGTQLTVWP
V domain 2: DVKVTQSSRYLVKRTGEKVFLECVQDMDHENMFWYRQDPGLGLRLIYFSYDVKMKEKGDIPEGYSVSREKKERFSLILESASTNQTSMYLCASSLWGRRNTGELFFGEGSRLTVLE
B6: TCR 58 (mouse constant regions) (TCR, V domains shown)
V domain 1: RKEVEQDPGPFNVPEGATVAFNCTYSNSASQSFFWYRQDCRKEPKLLMSVYSSGNEDGRFTAQLNRASQYISLLIRDSKLSDSATYLCVVNRDNYGQNFVFGPGTRLSVLP
V domain 2: EPEVTQTPSHQVTQMGQEVILRCVPISNHLYFYWYRQILGQKVEFLVSFYNNEISEKSEIFDDQFSVERPDGSNFTLKIRSTKLEDSAMYFCASTPRSSYEQYFGPGTRLTVTE
B7: TCR 61 (mouse constant regions) (TCR, V domains shown)
V domain 1: QKEVEQNSGPLSVPEGAIASLNCTYSDRGSQSFFWYRQYSGKSPELIMFIYSNGDKEDGRFTAQLNKASQYVSLLIRDSQPSDSATYLCAVNIENNNARLMFGDGTQLVVKP
V domain 2: B6 V domain 2 with P96K, S98F
B8: TCR 60 (mouse constant regions) (TCR, V domains shown)
V domain 1: QKEVEQNSGPLSVPEGAIASLNCTYSDRGSQSFFWYRQYSGKSPELIMFIYSNGDKEDGRFTAQLNKASQYVSLLIRDSQPSDSATYLCAVNMLGSGGSNYKLTFGKGTLLTVNP
V domain 2: B6 V domain 2 with S94I, T95S, P96R, R97T, S98V
B9: TCR 59 (mouse constant regions) (TCR, V domains shown)
V domain 1: GQQVMQIPQYQHVQEGEDFTTYCNSSTTLSNIQWYKQRPGGHPVFLIQLVKSGEVKKQKRLTFQFGEAKKNSSLHITATQTTDVGTYFCAPKREYGNKLVFGAGTILRVKS
V domain 2: B6 V domain 2 with S94Y, T95S, P96G, S98A
B10: TCR 57 (mouse constant regions) (TCR, V domains shown)
V domain 1: TQLLEQSPQFLSIQEGENLTVYCNSSSVFSSLQWYRQEPGEGPVLLVTVVTGGEVKKLKRLTFQFGDARKDSSLHITAAQPGDTGLYLCAGARNFNKFYFGSGTKLNVKP
V domain 2: GAVVSQHPSWVICKSGTSVKIECRSLDFQATTMFWYRQFPKQSLMLMATSNEGSKATYEQGVEKDKFLINHASLTLSTLTVTSAHPEDSSFYICSARSWRGGLEQFFGPGTRLTVLE
B11: TCR 64 (mouse constant regions) (TCR, V domains shown)
V domain 1: B2 Valpha
V domain 2: DTAVSQTPKYLVTQMGNDKSIKCEQNLGHDTMYWYKQDSKKFLKIMFSYNNKELIINETVPNRFSPKSPDKAHLNLHINSLELGDSAVYFCASSQGEAGANVLTFGAGSRLTVLE
B12: TCR 63 (mouse constant regions) (TCR, V domains shown)
V domain 1: B3 Valpha
V domain 2: GAGVSQSPRYKVAKRGQDVALRCDPISGHVSLFWYQQALGQGPEFLTYFQNEAQLDKSGLPSDRFFAERPEGSVSTLKIQRTQQEDSAVYLCASRPRQGYNDNEQFFGPGTRLTVLE
B13: TCR 62 (mouse constant regions) (TCR, V domains shown)
V domain 1: AQTVTQSQPEMSVQEAETVTLSCTYDTSENNYYLFWYKQPPSRQMILVIRQEAYKQQNATENRFSVNFQKAAKSFSLKISDSQLGDTAMYFCALYTYKYIFGTGTRLKVLA
V domain 2: EAGVAQSPRYKIIEKRQSVAFWCNPISGHATLYWYQQILGQGPKLLIQFQNNGVVDDSQLPKDRFSAERLKGVDSTLKIQPAKLEDSAVYLCASSLDTRGSSYNEQFFGPGTRLTVLE

Target: T1, HPV 16 E7 peptide on HLA-A*02:01 (human)
T1 peptide: YMLDLQPET
Assay: multimer staining

Binder | binding result
B1 | no recognition

Target: T2, HPV 16 E6 peptide on HLA-A*02:01 (human)
T2 peptide: TIHDIILECV
Assay: multimer staining

Binder | binding result
B1 | no recognition
B2 | no recognition
B3 | no recognition

Target: T3, HPV16 E7(11-19)-peptide-MHC tetramer complex (human papillomavirus 16 (HPV16); human)
T3 construct: also called E7(11-19)-specific tetramer; MHC/E7(11-19) peptide tetramer
Assay: flow cytometry, peptide-MHC tetramer staining of TCR-transduced primary human T cells;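 also: normal donor T cells activated with anti-CD3/anti-CD28, then lentivirally transduced with TCRs, with mock-transduced cells as control, co-stained for the transduction marker and CD8, tetramers presented by HLA-A02:01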
Experimental: (§1) CD8+ and CD4+ T cells were isolated from normal human donors and were stimulated with anti-CD3/anti-CD28 reagent, and then were transduced with a lentiviral preparation encoding various TCRs, or were subjected to a mock transduction control (cells treated under the same conditions used for lentiviral transduction but without addition of lentivirus). Following transduction, the cells were cultured in media containing human serum and cytokines.
(§2) After transduction, the cells were assessed by flow cytometry for staining with an antibody that recognized the surrogate marker, an anti-CD8 antibody, and a HPV 16 E6(29-38)- or HPV16 E7(11-19)-peptide-MHC tetramer complex. […] The reference TCR contains a mouse constant region.
(§3) Column 3 and 4 sets forth the percentage of CD8+ cells and CD8− cells (CD4+ cells) positive for E7(11-19)-specific tetramer staining in flow cytometry. Column 5 and 6 sets forth the percentage of CD8+ cells and CD8− cells (CD4+ cells) positive for E6(29-38)-specific tetramer staining in flow cytometry.

Binder | % of CD8+ cells positive for E7(11-19) tetramer staining [%] | % of CD8- (CD4+) cells positive for E7(11-19) tetramer staining [%]
B4 | 0.05 | 0.13
B5 | 0.26 | 0.07
B6 | 9.91 | 0.1
B7 | 17.2 | 0.13
B8 | 21.5 | 0.13
B9 | 28 | 0.16
B10 | 95 | 86
B11 | 0.13 | 0.06
B12 | 0.3 | 0.25
B13 | 38.8 | 0.07

Target: T4, HPV 16 E6(29-38)-peptide-MHC tetramer complex (human papillomavirus 16 (HPV16); human)
T4 construct: also called E6(29-38)-specific tetramer
Assay: as above
Experimental: as §1, §2, §3

Binder | % of CD8+ cells positive for E6(29-38) tetramer staining [%] | % of CD8- (CD4+) cells positive for E6(29-38) tetramer staining [%]
B4 | 0.07 | 0.12
B6 | 0.14 | 0.11
B7 | 0.15 | 0.12
B8 | 0.15 | 0.07
B9 | 0.11 | 0.16
B10 | 0.23 | 0.19
B11 | 0.17 | 0.11
B12 | 0.23 | 0.12
B13 | 0.2 | 0.04

From patent publication US20190321401A1 (JUNO THERAPEUTICS, published 2019)
